Source: US20180194862A1 (AbbVie / Abbott, published 2018)
Values belong to the binder of their own block, whether it stands above or below them.

Tests used:
[1] = target: T1, mouse CD40 (mouse, UniProt P27512 20-193, limits assumed); test: FACS
T1 construct: also called murine CD40
T1 sequence (looked up): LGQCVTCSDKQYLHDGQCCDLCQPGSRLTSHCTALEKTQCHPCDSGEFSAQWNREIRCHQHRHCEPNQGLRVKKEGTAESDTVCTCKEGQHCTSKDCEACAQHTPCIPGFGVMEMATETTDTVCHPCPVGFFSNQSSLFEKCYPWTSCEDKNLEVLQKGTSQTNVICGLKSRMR

[2] = target: T2, dog CD40 (dog, UniProt Q7YRL5 21-194, limits assumed); test: FACS
T2 sequence (looked up): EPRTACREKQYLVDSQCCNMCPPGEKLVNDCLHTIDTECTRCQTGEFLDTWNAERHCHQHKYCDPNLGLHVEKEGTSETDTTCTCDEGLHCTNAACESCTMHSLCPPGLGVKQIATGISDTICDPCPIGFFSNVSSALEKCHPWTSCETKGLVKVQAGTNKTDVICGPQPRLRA

[3] = target: T3, soluble form of the extracellular domain of human CD40 (Creative BioMart) (human, UniProt P25942 21-193); test: SPR, Ab captured
T3 construct: Bought
Procedure: (§1) CD40 binding kinetics was analyzed by surface plasmon resonance assay with a Biacore T200 instrument (Table 1-5). Briefly, a goat anti-mouse Fc antibody (Pierce) or goat anti-human Fc (Pierce) was immobilized on a CM5 sensor chip, followed by capture of the anti-CD40 antibodies on the test surface. Subsequently, the soluble form of the extracellular domain of human CD40 (Creative BioMart) or cynomolgus (cyno) CD40 (Creative BioMart) was injected, and the binding and dissociation were measured.

[4] = target: T4, soluble form of the extracellular domain of cynomolgus (cyno) CD40 (Creative BioMart) (cynomolgus, UniProt G7PG38 21-193); test: SPR, Ab captured
T4 construct: extracellular domain; also called Cynomolgus CD40
Procedure: as §1

[5] = target: human CD40 on cells (HEK293 stable transfectants, HEK-Blue CD40 cells, human B cells, monocytic cells, … (human, UniProt P25942 21-277)); test: cell-based or functional assay
[6] = target: CD40 (binding assays of Example 4, Table 4-2); test: antigen binding, format not stated
[7] = target: T5, mouse 4-1BB on HEK293 cells (mouse, UniProt P20334 24-256); test: FACS, HEK293 mouse 4-1BB
T5 construct: whole, on cells
T5 sequence (looked up): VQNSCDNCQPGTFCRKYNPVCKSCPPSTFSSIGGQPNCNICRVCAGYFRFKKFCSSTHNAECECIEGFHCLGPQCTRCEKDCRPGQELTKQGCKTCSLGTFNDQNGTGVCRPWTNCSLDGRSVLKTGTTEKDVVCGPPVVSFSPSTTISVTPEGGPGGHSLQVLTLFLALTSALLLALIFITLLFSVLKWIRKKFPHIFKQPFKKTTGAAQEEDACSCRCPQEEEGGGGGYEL
Procedure: To determine species specificity and relative binding affinities of the test antibodies, cell lines were generated to exogenously express 4-1BB on the membrane. HEK293 cells were transfected with a plasmid expressing the human, cynomolgus, or mouse 4-1BB proteins. Stable, high expressing populations were sorted on the MoFlo sorter (Beckman) and maintained in DMEM, 10% fetal bovine serum, containing 500 μg/mL G418. For the assay, cells were dissociated with trypsin, resuspended at 5×10⁶ cells/mL and transferred to the 500 μL polypropylene plate (Nunc) at 50 μL/well (250,000 cells/well). […] Cells were washed twice with 250 μL/PBS (Hyclone) per well. PE-labelled detection antibodies were added at 1:250 dilution of stock, 50 μL/well, and incubated for 20 minutes at room temperature. The following detection antibodies were used: Goat anti-Rat IgG-PE (Southern Biotech), Goat anti-Mouse IgG-PE (Southern Biotech) or Goat anti-Human IgG-PE (Southern Biotech). Cells were washed once and fixed with PBS containing 1% Formaldehyde. Plate was analyzed for fluorescence on the FACSCalibur (Becton Dickinson).

[8] = target: T6, cynomolgus mesothelin (cynomolgus); test: SPR
T6 construct: also called cynoMSLN; Cyno MSLN

[9] = target: T7, human mesothelin (human, UniProt Q13421 296-580, limits assumed); test: SPR
T7 construct: also called Human MSLN

[10] = target: T8, mesothelin on cells (endogenous on SN12C, OVCAR3, SW1990); HEK293 cells expressing cell-surface human … (human, UniProt Q13421 296-598); test: FACS, SN12C (CA125-)
T8 construct: whole, on cells; also called cell-surface MSLN
Procedure: (§2) The binding of anti-mesothelin affinity matured variants was measured by FACS on the ovarian cancer cell line OVCAR3, the pancreatic cancer cell line SW1990, and the renal cancer cell line SN12C. Both OVCAR3 and SW1990 express CA125, but CA125 expression on SN12C cells was not detected.

[11] = target: T8, mesothelin on cells (endogenous on …); test: FACS, OVCAR3 (CA125+)
Procedure: as §2

[12] = target: T9, MSLN (binding assays of Example 4, Table 4-2) (Homo sapiens (Human), UniProt Q13421 296-598); test: antigen binding, format not stated
T9 construct: also called mesothelin
T9 sequence (Q13421 other isoform, or with tags, fused parts or gaps limits assumed, form in doubt): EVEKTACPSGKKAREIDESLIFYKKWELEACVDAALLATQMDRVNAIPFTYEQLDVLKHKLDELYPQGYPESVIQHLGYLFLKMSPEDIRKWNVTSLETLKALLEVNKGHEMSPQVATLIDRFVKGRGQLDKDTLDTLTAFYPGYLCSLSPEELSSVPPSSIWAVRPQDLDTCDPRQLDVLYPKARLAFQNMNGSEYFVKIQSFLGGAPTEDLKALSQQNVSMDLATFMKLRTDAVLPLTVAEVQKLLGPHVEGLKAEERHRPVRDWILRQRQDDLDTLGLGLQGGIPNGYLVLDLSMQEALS

T7 sequence (Q13421 other isoform, or with tags, fused parts or gaps limits assumed): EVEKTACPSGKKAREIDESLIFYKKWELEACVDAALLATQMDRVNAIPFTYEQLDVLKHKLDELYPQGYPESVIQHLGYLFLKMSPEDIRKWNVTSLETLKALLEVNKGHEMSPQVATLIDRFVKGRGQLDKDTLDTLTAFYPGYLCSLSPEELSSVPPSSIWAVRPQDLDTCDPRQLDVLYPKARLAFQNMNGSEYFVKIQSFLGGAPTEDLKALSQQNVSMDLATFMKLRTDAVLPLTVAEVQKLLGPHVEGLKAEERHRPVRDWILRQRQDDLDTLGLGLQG
T3 sequence (P25942 21-193 limits assumed): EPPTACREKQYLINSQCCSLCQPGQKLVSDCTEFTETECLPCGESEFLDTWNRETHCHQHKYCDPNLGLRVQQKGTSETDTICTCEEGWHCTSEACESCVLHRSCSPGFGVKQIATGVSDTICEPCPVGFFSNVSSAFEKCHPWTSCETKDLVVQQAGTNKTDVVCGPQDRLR
T8 sequence (Q13421 other isoform, or with tags, fused parts or gaps limits assumed): as the sequence (Q13421 other isoform, or with tags, fused parts or gaps limits assumed, form in doubt) above
human CD40 on cells (HEK293 stable transfectants, HEK-Blue CD40 cells, human B cells, monocytic cells, …, sequence (P25942 21-277 limits assumed): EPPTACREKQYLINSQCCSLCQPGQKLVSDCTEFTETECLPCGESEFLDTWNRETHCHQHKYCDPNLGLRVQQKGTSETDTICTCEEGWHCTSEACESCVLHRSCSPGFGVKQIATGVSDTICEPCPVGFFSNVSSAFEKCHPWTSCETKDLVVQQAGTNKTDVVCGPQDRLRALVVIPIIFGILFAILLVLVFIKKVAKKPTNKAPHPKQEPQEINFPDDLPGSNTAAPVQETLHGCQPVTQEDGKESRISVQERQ
CD40 (binding assays of Example 4, Table 4-2), sequence (P25942 21-277): as the sequence (P25942 21-277 limits assumed) above

binding result [1]: no binding
binding result [2]: no binding
Kd [3]: 15 nM
koff [3]: 0.026 s⁻¹
kon [3]: 1.7e+06 M⁻¹ s⁻¹
Kd [4]: 13 nM
koff [4]: 0.024 s⁻¹
kon [4]: 1.8e+06 M⁻¹ s⁻¹
NF-κB activation EC50, HEK293 CD40 NFκB reporter cells [5]: 1.13 µg/mL
EC50 [6]: 0.2 µg/mL
B1: huAb9-5 (antibody, human IgG1, kappa)
heavy: not shown
light: DAVMTQTPLSLSVTPGQPASISCRSSQSLENTNGNTFLNWYLQKPGQSPQLLIYRVSNRFSGVPDRFSGSGSGTDFTLKISRVEAEDVGVYYCLQVTHVPFTFGQGTKLEIKRTVAAPSVFIFPPSDEQLKSGTASVVCLLNNFYPREAKVQWKVDNALQSGNSQESVTEQDSKDSTYSLSSTLTLSKADYEKHKVYACEVTHQGLSSPVTKSFNRGEC
notes: human IgG1, kappa

binding result [1]: no binding
binding result [2]: no binding
Kd [3]: 3 nM
koff [3]: 0.0023 s⁻¹
kon [3]: 770000 M⁻¹ s⁻¹
Kd [4]: 7.1 nM
koff [4]: 0.0071 s⁻¹
kon [4]: 1e+06 M⁻¹ s⁻¹
NF-κB activation EC50, HEK293 CD40 NFκB reporter cells [5]: 0.14 µg/mL
EC50 [6]: 0.4 µg/mL
B2: huAb8-1 (antibody, human IgG1, V domains shown)
VH: EVQLVQSGAEVKKPGSSVKVSCKASGYTFTDYYINWVRQAPGQGLEWIGWIFPGSGSVYCNEQFKGRATLTVDRSTSTAYMELSSLRSEDTAVYFCASSLGKFAYWGQGTLVTVSS
VL: DIQMTQSPSSLSASVGDRVTITCKASQSVVTAVAWYQQKPGKSPKLLIYSASNRYTGVPSRFSGSGSGTDFTLTISSLQPEDFATYFCQQYSSYPYTFGGGTKVEIK
notes: human IgG1, kappa

EC50 [7]: 1.1 nM
B3: Hu106mPSMA-3 (bispecific antibody)
chain: EVQLVQSGAEVKKPGSSVKVSCKASGYTFTSYYIYWVRQAPGQGLEWIGNIWPGNGGTFYGEKFMGRATFTADTSTSTAYMELSSLRSEDTAVYYCARRPDYSGDDYFDYWGQGTLVTVSSGGGGSGGGGSGGGGSGGGGSGGGGSGGGGSNVMLTQPHSVSESPGKTVTISCKLNSGNIGSYYVHWYQQRPGSSPTTMIYRDDKRPDGVPDRFSGSIDSSSNSASLTISGLKTEDEADYYCHSYDSTITPVFGGGTKLTVLGQVPRDSGCKPCICTVPEVSSVFIFPPKPKDVLMITLTPKVTCVVVDISKDDPEVQFSWFVDDVEVHTAQTQPREEQFNSTFRSVSELPIMHQDWLNGKEFKCRVNSAAFPAPIEKTISKTKGRPKAPQVYTIPPPKEQMAKDKVSLTCMITDFFPEDITVEWQWNGQPAENYKNTQPIMDTDGSYFVYSKLNVQKSNWEAGNTFTCSVLHEGLHNHHTEKSLSHSPGKGGGGSGGGSGGGSGGGGSEVKLVESEGGLVQPGSSMKLSCTASGFTFSDYYMAWVRQVPEKGLEWVANINYDGTTTYYLDSLKSRFIISRDNSKNILYLQMSSLKSEDTATYYCARVLDGYYGYFDYWGQGTTLSVSSGGGGSGGGGSGGGGSGGGGSGGGGSGGGGSQIVLTQSPAIMSASPGEKVTISCSASSSVSYMYWYQQKPGSSPKPWIYRTYNLASGVPARFSGSGSGTSYSLTISSMEAEDAATYYCQQSHTYPPTFGGGTKLEIKR
notes: contains T252M

EC50 [7]: 1 nM
B4: Hu106mPSMA-4 (bispecific antibody)
chain: EVQLVQSGAEVKKPGSSVKVSCKASGYTFTSYYIYWVRQAPGQGLEWIGNIWPGNGGTFYGEKFMGRATFTADTSTSTAYMELSSLRSEDTAVYYCARRPDYSGDDYFDYWGQGTLVTVSSGGGGSGGGGSGGGGSGGGGSGGGGSGGGGSNVMLTQPHSVSESPGKTVTISCKLNSGNIGSYYVHWYQQRPGSSPTTMIYRDDKRPDGVPDRFSGSIDSSSNSASLTISGLKTEDEADYYCHSYDSTITPVFGGGTKLTVLGQVPRDSGCKPCICTVPEVSSVFIFPPKPKDVLMITLTPKVTCVVVDISKDDPEVQFSWFVDDVEVHTAQTQPREEQFASTFRSVSELPIMHQDWLNGKEFKCRVNSAAFPAPIEKTISKTKGRPKAPQVYTIPPPKEQMAKDKVSLTCMITDFFPEDITVEWQWNGQPAENYKNTQPIMDTDGSYFVYSKLNVQKSNWEAGNTFTCSVLHEGLHNHHTEKSLSHSPGKGGGGSGGGSGGGSGGGGSEVKLVESEGGLVQPGSSMKLSCTASGFTFSDYYMAWVRQVPEKGLEWVANINYDGTTTYYLDSLKSRFIISRDNSKNILYLQMSSLKSEDTATYYCARVLDGYYGYFDYWGQGTTLSVSSGGGGSGGGGSGGGGSGGGGSGGGGSGGGGSQIVLTQSPAIMSASPGEKVTISCSASSSVSYMYWYQQKPGSSPKPWIYRTYNLASGVPARFSGSGSGTSYSLTISSMEAEDAATYYCQQSHTYPPTFGGGTKLEIKR
notes: contains T252M and N297A

Kd [8]: 4.5 nM
koff [8]: 0.00018 s⁻¹
kon [8]: 40000 M⁻¹ s⁻¹
Kd [9]: 0.31 nM
koff [9]: 1.3e-05 s⁻¹
kon [9]: 44000 M⁻¹ s⁻¹
EC50 [10]: 0.07 µg/mL
Maximum binding (MFI) [10]: 9390 MFI
EC50 [11]: 0.7 µg/mL
Maximum binding (MFI) [11]: 3550 MFI
EC50 [12]: 0.9 µg/mL
B5: HuAM15 (antibody, V domains shown)
VH: EVQLVQSGAEVKKPGASVKVSCKASGDTFKRYYVHWVRQAPGQGLEWMGIINPSGVSTTYAQKFQGRVTMTRDTSTSTVYMELSSLRSEDTAVYYCAEVRGSGFNYFGMDVWGQGTLVTVSS
VL: SYELTQPPSVSVSPGQTASITCSGDKLGDKYASWYQQKPGQSPVLVIYQDNRRPSGIPERFSGSNSGNTATLTISGTQAMDEADYYCQAWDSDTYVFGTGTKVTVL
notes: fully human antibody

EC50 [7]: 0.69 nM
B6: hu106-1 mIgG1 (antibody, V domains shown)
VH: EVQLVQSGAEVKKPGSSVKVSCKASGYTFTSYYIYWVRQAPGQGLEWIGNIWPGNGGTFYGEKFMGRATFTADTSTSTAYMELSSLRSEDTAVYYCARRPDYSGDDYFDYWGQGTLVTVSS
VL: NVMLTQPHSVSESPGKTVTISCKLNSGNIGSYYVHWYQQRPGSSPTTMIYRDDKRPDGVPDRFSGSIDSSSNSASLTISGLKTEDEADYYCHSYDSTITPVFGGGTKLTVL
notes: also called hu106-1 with the muIgG1 constant region

EC50 [7]: 0.95 nM
B7: hu106-1 T252M mIgG1 (antibody, V domains shown)
VH: EVQLVQSGAEVKKPGSSVKVSCKASGYTFTSYYIYWVRQAPGQGLEWIGNIWPGNGGTFYGEKFMGRATFTADTSTSTAYMELSSLRSEDTAVYYCARRPDYSGDDYFDYWGQGTLVTVSS
VL: NVMLTQPHSVSESPGKTVTISCKLNSGNIGSYYVHWYQQRPGSSPTTMIYRDDKRPDGVPDRFSGSIDSSSNSASLTISGLKTEDEADYYCHSYDSTITPVFGGGTKLTVL
notes: also called hu106-1 mIgG1 T252M
